Changes are numbered by the printed parent chain.

Experiment [1] has as its target recombinant H5N1 VN/04 HA trimer (hemagglutinin ectodomain of A/Vietnam/1203/2004) (influenza A virus A/Vietnam/1203/2004 (H5N1)). Nature of the experiment: ELISA, coated HA.
Experiment [2] has as its target recombinant H7N9 AH/13 HA trimer (hemagglutinin ectodomain of A/Anhui/1-BALF_RG17/2013) (influenza A virus A/Anhui/1-BALF_RG17/2013 (H7N9)). Put plainly: ELISA, coated HA. For orientation: In an ELISA, binding on a coated surface is turned into a signal by an enzyme label.
Experiment [3] addresses recombinant H3N2 WN/05 HA trimer (hemagglutinin ectodomain of A/Wisconsin/67/2005) (influenza A virus A/Wisconsin/67/2005 (H3N2)). Nature of the experiment: ELISA, coated HA.
Experiment [4] has as its target recombinant H1N1 CA/09 HA trimer (hemagglutinin ectodomain of A/California/07/2009) (influenza A virus A/California/07/2009 (H1N1)). Put plainly: ELISA, coated HA.
The target of experiment [5] is cell surface-expressed H3N2 WN/05 HA trimer (influenza A virus A/Wisconsin/67/2005 (H3N2)). Nature of the experiment: flow cytometry, HA-expressing 293T.
In experiment [6] the target is full-length H5 A/Vietnam/1203/2004 HA expressed on 293T cells (influenza A virus A/Vietnam/1203/2004 (H5N1)). Nature of the experiment: flow cytometry, HA-expressing 293T. In general terms: Flow cytometry measures light scatter and fluorescence of single cells or particles in a stream.
The target in experiment [7] is full-length H1 A/California/07/2009 HA expressed on 293T cells (influenza A virus A/California/07/2009 (H1N1)). Nature of the experiment: flow cytometry, HA-expressing 293T.
The target in experiment [8] is full-length H5 A/Vietnam/1203/2004 HA expressed on 293T cells (influenza A virus A/Vietnam/1203/2004 (H5N1)). Put plainly: cell-based or functional assay.
Experiment [9] has as its target full-length H1 A/California/07/2009 HA expressed on 293T cells (influenza A virus A/California/07/2009 (H1N1)). Nature of the experiment: cell-based or functional assay.
Experiment [10] addresses H7 A/Anhui/1-BALF_RG17/2013 HA on H7N9 AH/13 pseudo virus (influenza A virus A/Anhui/1-BALF_RG17/2013 (H7N9)). Nature of the experiment: cell-based or functional assay.
Experiment [11] concerns the target cell surface-expressed H3N2 WN/05 HA trimer (influenza A virus A/Wisconsin/67/2005 (H3N2)). Nature of the experiment: cell-based or functional assay.

What is called EC50 is the concentration at which the effect is half-maximal. For the molecule FI6V3 (antibody), the EC50 in experiment [1] came out at 0.00648 µg/mL; in experiment [2], 0.314 µg/mL; in experiment [3], 0.0789 µg/mL; in experiment [4], 0.0107 µg/mL; in experiment [5] it was 0.065 µg/mL; in experiment [7] it was 0.067 µg/mL. For the same molecule, the figures for the max. MFI in experiment [5], in experiment [6] and in experiment [7] were 16600 MFI, 13700 MFI and 10100 MFI, respectively. In experiment [8], the IC50 of pseudo virus neutralization H5N1 VN/04 is 0.013 µg/mL. The molecule further had an IC50 of pseudo virus neutralization H1N1 CA/09 in experiment [9] of 0.0213 µg/mL. Further, the IC50 of true virus neutralization H1N1 CA/09 in experiment [9] is 9.21 µg/mL. In experiment [10], this molecule had an IC50 of pseudo virus neutralization H7N9 AH/13 of 0.051 µg/mL.

Consider CR8020 (antibody), for which the EC50 was 0.0194 µg/mL in experiment [3] and 0.569 µg/mL in experiment [5]. Further, the max. MFI turned out to be 18000 MFI in experiment [5], 639 MFI in [6] and 91 MFI in [7]. This molecule also came in with an IC50 of pseudo virus neutralization H3N2 WN/05 in [11] of 0.0477 µg/mL. This molecule also yielded an IC50 of pseudo virus neutralization H5N1 VN/04 in experiment [8] of over 200 µg/mL. In experiment [9], the IC50 of pseudo virus neutralization H1N1 CA/09 was over 100 µg/mL. The IC50 of true virus neutralization H1N1 CA/09 in experiment [9] was over 500 µg/mL. This molecule also had an IC50 of pseudo virus neutralization H7N9 AH/13 in [10] of 0.052 µg/mL.

Consider C05 (antibody), for which, in [3], the EC50 was determined as 0.00844 µg/mL.

With F10 (antibody), the 50% effective concentration (EC50) was 0.021 µg/mL in [1], 0.0121 µg/mL in [4] and 1.05 µg/mL in experiment [7]. For the same molecule, the max. MFI in experiment [5] stood at 220 MFI; in experiment [6], 10500 MFI; in experiment [7] it was 9530 MFI. In [8], this molecule gave an IC50 of pseudo virus neutralization H5N1 VN/04 of 0.012 µg/mL. In experiment [9], this molecule displayed an IC50 of pseudo virus neutralization H1N1 CA/09 of 0.0119 µg/mL. The molecule further came in with an IC50 of true virus neutralization H1N1 CA/09 in [9] of 1.26 µg/mL. The IC50 of pseudo virus neutralization H7N9 AH/13 in experiment [10] was over 200 µg/mL.

B1: P58 (antibody, V domains shown)
VH: EVQLVESGGGLVQPGGSLRLSCAASGFTIGGGGIHWVRQAPGKGLEWVAWIWPYWGYTYYADSVKGRFTISADTSKNTAYLQMNSLRAEDTAVYYCARFNSYSYSGVMDYWGQGTLVTVSS
VL: DIQMTQSPSSLSASVGDRVTITCRASQDVYSYVAWYQQKPGKAPKLLISSSRGLYSGVPSRFSGSGSGTDFTLTISSLQPEDFATYYCQQYSSFPITFGQGTKVEIKR
With B1, the EC50 in experiment [1] was over 10 µg/mL; in experiment [2], 0.504 µg/mL; in experiment [5], 3.58 µg/mL; in [6], 0.366 µg/mL; in experiment [7], 0.25 µg/mL. Further, the max. MFI in experiment [5] worked out at 697 MFI; in [6], 6710 MFI; in [7] it was 6290 MFI. The molecule also came in with an IC50 of pseudo virus neutralization H3N2 WN/05 in [11] of over 20 µg/mL. Also, the IC50 of pseudo virus neutralization H5N1 VN/04 in experiment [8] is over 200 µg/mL. The molecule further returned an IC50 of pseudo virus neutralization H1N1 CA/09 in experiment [9] of over 100 µg/mL. For the same molecule, the IC50 of true virus neutralization H1N1 CA/09 in experiment [9] was over 500 µg/mL. Further, the IC50 of pseudo virus neutralization H7N9 AH/13 in experiment [10] was over 200 µg/mL.

B2: P44 (antibody, V domains shown)
VH: EVQLVESGGGLVQPGGSLRLSCAASGFTIDGWWIHWVRQAPGKGLEWVAGIWPFGGFTSYADSVKGRFTISADTSKNTAYLQMNSLRAEDTAVYYCARSYSGYSGDYWGQGTLVTVSS
VL: B1 VL with Y30N, S31N, Y32N, S49Y, S50W, R52S, G53S, S92Y, S93N, I96V
Take B2: the 50% effective concentration (EC50) was 0.1 µg/mL in experiment [1], 0.163 µg/mL in [2] and 0.466 µg/mL in experiment [7]. Besides, the max. MFI in experiment [5] was determined as 127 MFI; in experiment [6], 188 MFI; in experiment [7], 8480 MFI. The same molecule registered an IC50 of pseudo virus neutralization H3N2 WN/05 in experiment [11] of over 20 µg/mL. Further, the IC50 of pseudo virus neutralization H5N1 VN/04 in experiment [8] is over 200 µg/mL. The IC50 of pseudo virus neutralization H1N1 CA/09 in experiment [9] is over 100 µg/mL. This molecule also displayed an IC50 of true virus neutralization H1N1 CA/09 in experiment [9] of over 500 µg/mL. In [10], this molecule had an IC50 of pseudo virus neutralization H7N9 AH/13 of over 200 µg/mL.
